Assay results published in patent US20120172293A1 (Takeda / Millennium, published 2012).
Starred links: 1 amine or outer side, 2 acyl side, 3 side chain; linkers in the order of their positions; H or OH if unused. Non-standard residues stand in square brackets, D forms with d. No end group written: not given here. *: point of attachment. Ala(piperidin-4-yl) = O=C([C@H](CC1CCN([*:3])CC1)N[*:1])[*:2]; (3-carboxypropyl)carbamoyl = O=C(O)CCCNC(=O)*; (carboxymethyl)carbamoyl = O=C(O)CNC(=O)*; Imidazole4carbonyl = O=C(c1cnc[nH]1)*; Arg(Me) = CNC(=N)NCCC[C@H](N)C(=O)O; hArg = N=C(N)NCCCC[C@H](N)C(=O)O; 4Pal = N[C@@H](Cc1ccncc1)C(=O)O; Cha = N[C@@H](CC1CCCCC1)C(=O)O; Isonicotinoyl = O=C(c1ccncc1)*; Suc = O=C(CCC(=O)[*:2])[*:1]; Iva = CC[C@](C)(N)C(=O)O; Nle = CCCC[C@H](N)C(=O)O; Aib = CC(C)(N)C(=O)O; Ahx = NCCCCCC(=O)O

B1: (Carboxymethyl)carbamoyl-[D-Pro24, Iva25, Pya(4)26, Cha27,36, Aib28,31, Lys30]-PYY(23-36) (peptide)
peptide: {(carboxymethyl)carbamoyl}-S[dP][Iva][4Pal][Cha][Aib]NK[Aib]TRQR[Cha]-NH2
SMILES: CC[C@](C)(NC(=O)[C@H]1CCCN1C(=O)[C@H](CO)NC(=O)NCC(=O)O)C(=O)N[C@@H](Cc1ccncc1)C(=O)N[C@@H](CC1CCCCC1)C(=O)NC(C)(C)C(=O)N[C@@H](CC(N)=O)C(=O)N[C@@H](CCCCN)C(=O)NC(C)(C)C(=O)N[C@H](C(=O)N[C@@H](CCCNC(=N)N)C(=O)N[C@@H](CCC(N)=O)C(=O)N[C@@H](CCCNC(=N)N)C(=O)N[C@@H](CC1CCCCC1)C(N)=O)[C@@H](C)O
B2: (3-Carboxypropyl)carbamoyl-[D-Pro24, Iva25, Pya(4)26, Cha27,36, Aib28,31, Lys30]-PYY(23-36) (peptide)
peptide: {(3-carboxypropyl)carbamoyl}-S[dP][Iva][4Pal][Cha][Aib]NK[Aib]TRQR[Cha]-NH2
SMILES: CC[C@](C)(NC(=O)[C@H]1CCCN1C(=O)[C@H](CO)NC(=O)NCCCC(=O)O)C(=O)N[C@@H](Cc1ccncc1)C(=O)N[C@@H](CC1CCCCC1)C(=O)NC(C)(C)C(=O)N[C@@H](CC(N)=O)C(=O)N[C@@H](CCCCN)C(=O)NC(C)(C)C(=O)N[C@H](C(=O)N[C@@H](CCCNC(=N)N)C(=O)N[C@@H](CCC(N)=O)C(=O)N[C@@H](CCCNC(=N)N)C(=O)N[C@@H](CC1CCCCC1)C(N)=O)[C@@H](C)O
B3: Ac-[D-Pro24, Iva25, Pya(4)26, Cha27,36, Aib28,31, Har30]-PYY(23-36) (peptide)
peptide: Ac-S[dP][Iva][4Pal][Cha][Aib]N[hArg][Aib]TRQR[Cha]-NH2
SMILES: CC[C@](C)(NC(=O)[C@H]1CCCN1C(=O)[C@H](CO)NC(C)=O)C(=O)N[C@@H](Cc1ccncc1)C(=O)N[C@@H](CC1CCCCC1)C(=O)NC(C)(C)C(=O)N[C@@H](CC(N)=O)C(=O)N[C@@H](CCCCNC(=N)N)C(=O)NC(C)(C)C(=O)N[C@H](C(=O)N[C@@H](CCCNC(=N)N)C(=O)N[C@@H](CCC(N)=O)C(=O)N[C@@H](CCCNC(=N)N)C(=O)N[C@@H](CC1CCCCC1)C(N)=O)[C@@H](C)O
B4: Ac-[Arg23, D-Pro24, Iva25, Pya(4)26, Cha27,36, Aib28,31, Lys30]-PYY(23-36) (peptide)
peptide: Ac-R[dP][Iva][4Pal][Cha][Aib]NK[Aib]TRQR[Cha]-NH2
SMILES: CC[C@](C)(NC(=O)[C@H]1CCCN1C(=O)[C@H](CCCNC(=N)N)NC(C)=O)C(=O)N[C@@H](Cc1ccncc1)C(=O)N[C@@H](CC1CCCCC1)C(=O)NC(C)(C)C(=O)N[C@@H](CC(N)=O)C(=O)N[C@@H](CCCCN)C(=O)NC(C)(C)C(=O)N[C@H](C(=O)N[C@@H](CCCNC(=N)N)C(=O)N[C@@H](CCC(N)=O)C(=O)N[C@@H](CCCNC(=N)N)C(=O)N[C@@H](CC1CCCCC1)C(N)=O)[C@@H](C)O
B5: Ac-[D-Pro24, Ala(4Pip)25, Pya(4)26, Cha27,36, Aib28,31, Lys30]-PYY(23-36) former peak (peptide)
peptide: Ac-S[dP][Ala(piperidin-4-yl)][4Pal][Cha][Aib]NK[Aib]TRQR[Cha]-NH2
modifications: also: Ala(4Pip)25 D or L, not assigned, former peak isomer
B6: [Acp23, D-Pro24, Pya(4)26, Cha27,36, Aib28,31, Lys30]-PYY(23-36) (peptide)
peptide: [Ahx][dP]R[4Pal][Cha][Aib]NK[Aib]TRQR[Cha]-NH2
modifications: not fully specified (N-terminus); printed as Ac-Acp-D-Pro-Arg-Pya(4)-Cha-Aib-Asn-Lys-Aib-Thr-Arg-Gln-Arg-Cha-NH2
B7: Ac-[Glu23, D-Pro24, Iva25, Pya(4)26, Cha27,36, Aib28,31, Lys30]-PYY(23-36) (peptide)
peptide: Ac-E[dP][Iva][4Pal][Cha][Aib]NK[Aib]TRQR[Cha]-NH2
SMILES: CC[C@](C)(NC(=O)[C@H]1CCCN1C(=O)[C@H](CCC(=O)O)NC(C)=O)C(=O)N[C@@H](Cc1ccncc1)C(=O)N[C@@H](CC1CCCCC1)C(=O)NC(C)(C)C(=O)N[C@@H](CC(N)=O)C(=O)N[C@@H](CCCCN)C(=O)NC(C)(C)C(=O)N[C@H](C(=O)N[C@@H](CCCNC(=N)N)C(=O)N[C@@H](CCC(N)=O)C(=O)N[C@@H](CCCNC(=N)N)C(=O)N[C@@H](CC1CCCCC1)C(N)=O)[C@@H](C)O
B8: Ac-[D-Pro24, Iva25, Pya(4)26, Cha27,36, Aib28,31, Arg(Me)30]-PYY(23-36) (peptide)
peptide: Ac-S[dP][Iva][4Pal][Cha][Aib]N[Arg(Me)][Aib]TRQR[Cha]-NH2
B9: 4-Pyridinecarbonyl-[D-Pro24, Iva25, Pya(4)26, Cha27,36, Aib28,31, Lys30]-PYY(23-36) (peptide)
peptide: Isonicotinoyl-S[dP][Iva][4Pal][Cha][Aib]NK[Aib]TRQR[Cha]-NH2
SMILES: CC[C@](C)(NC(=O)[C@H]1CCCN1C(=O)[C@H](CO)NC(=O)c1ccncc1)C(=O)N[C@@H](Cc1ccncc1)C(=O)N[C@@H](CC1CCCCC1)C(=O)NC(C)(C)C(=O)N[C@@H](CC(N)=O)C(=O)N[C@@H](CCCCN)C(=O)NC(C)(C)C(=O)N[C@H](C(=O)N[C@@H](CCCNC(=N)N)C(=O)N[C@@H](CCC(N)=O)C(=O)N[C@@H](CCCNC(=N)N)C(=O)N[C@@H](CC1CCCCC1)C(N)=O)[C@@H](C)O
B10: 3-Carboxypropionyl-[D-Pro24, Pya(4)26, Cha27,36, Aib28,31, Lys30]-PYY(24-36) (peptide)
peptide: Suc-[dP]R[4Pal][Cha][Aib]NK[Aib]TRQR[Cha]-NH2
SMILES: C[C@@H](O)[C@H](NC(=O)C(C)(C)NC(=O)[C@H](CCCCN)NC(=O)[C@H](CC(N)=O)NC(=O)C(C)(C)NC(=O)[C@H](CC1CCCCC1)NC(=O)[C@H](Cc1ccncc1)NC(=O)[C@H](CCCNC(=N)N)NC(=O)[C@H]1CCCN1C(=O)CCC(=O)O)C(=O)N[C@@H](CCCNC(=N)N)C(=O)N[C@@H](CCC(N)=O)C(=O)N[C@@H](CCCNC(=N)N)C(=O)N[C@@H](CC1CCCCC1)C(N)=O
B11: 4-Imidazolecarbonyl-[D-Pro24, Iva25, Pya(4)26, Cha27,30,36, Aib28,31]-PYY(23-36) (peptide)
peptide: Imidazole4carbonyl-S[dP][Iva][4Pal][Cha][Aib]N[Cha][Aib]TRQR[Cha]-NH2
SMILES: CC[C@](C)(NC(=O)[C@H]1CCCN1C(=O)[C@H](CO)NC(=O)c1cnc[nH]1)C(=O)N[C@@H](Cc1ccncc1)C(=O)N[C@@H](CC1CCCCC1)C(=O)NC(C)(C)C(=O)N[C@@H](CC(N)=O)C(=O)N[C@@H](CC1CCCCC1)C(=O)NC(C)(C)C(=O)N[C@H](C(=O)N[C@@H](CCCNC(=N)N)C(=O)N[C@@H](CCC(N)=O)C(=O)N[C@@H](CCCNC(=N)N)C(=O)N[C@@H](CC1CCCCC1)C(N)=O)[C@@H](C)O
B12: Ac-[D-Pro24, Iva25,28, Pya(4)26, Cha27,36, Lys30, Aib31]-PYY(23-36) (peptide)
peptide: Ac-S[dP][Iva][4Pal][Cha][Iva]NK[Aib]TRQR[Cha]-NH2
SMILES: CC[C@](C)(NC(=O)[C@H](CC1CCCCC1)NC(=O)[C@H](Cc1ccncc1)NC(=O)[C@](C)(CC)NC(=O)[C@H]1CCCN1C(=O)[C@H](CO)NC(C)=O)C(=O)N[C@@H](CC(N)=O)C(=O)N[C@@H](CCCCN)C(=O)NC(C)(C)C(=O)N[C@H](C(=O)N[C@@H](CCCNC(=N)N)C(=O)N[C@@H](CCC(N)=O)C(=O)N[C@@H](CCCNC(=N)N)C(=O)N[C@@H](CC1CCCCC1)C(N)=O)[C@@H](C)O
B13: Ac-[D-Pro24, Ala(4Pip)25, Pya(4)26, Cha27,36, Aib28,31, Lys30]-PYY(23-36) later peak (peptide)
peptide: Ac-S[dP][Ala(piperidin-4-yl)][4Pal][Cha][Aib]NK[Aib]TRQR[Cha]-NH2
modifications: also: Ala(4Pip)25 D or L, not assigned, later peak isomer
B14: 4-Imidazolecarbonyl-[D-Pro24, Iva25, Pya(4)26, Cha27,36, Aib28,31, Lys30]-PYY(23-36) (peptide)
peptide: Imidazole4carbonyl-S[dP][Iva][4Pal][Cha][Aib]NK[Aib]TRQR[Cha]-NH2
SMILES: CC[C@](C)(NC(=O)[C@H]1CCCN1C(=O)[C@H](CO)NC(=O)c1cnc[nH]1)C(=O)N[C@@H](Cc1ccncc1)C(=O)N[C@@H](CC1CCCCC1)C(=O)NC(C)(C)C(=O)N[C@@H](CC(N)=O)C(=O)N[C@@H](CCCCN)C(=O)NC(C)(C)C(=O)N[C@H](C(=O)N[C@@H](CCCNC(=N)N)C(=O)N[C@@H](CCC(N)=O)C(=O)N[C@@H](CCCNC(=N)N)C(=O)N[C@@H](CC1CCCCC1)C(N)=O)[C@@H](C)O
B15: Ac-[D-Pro24, Arg(Me)25,30, Pya(4)26, Cha27,36, Aib28,31]-PYY(23-36) (peptide)
peptide: Ac-S[dP][Arg(Me)][4Pal][Cha][Aib]N[Arg(Me)][Aib]TRQR[Cha]-NH2
SMILES: CNC(=N)NCCC[C@H](NC(=O)[C@H](CC(N)=O)NC(=O)C(C)(C)NC(=O)[C@H](CC1CCCCC1)NC(=O)[C@H](Cc1ccncc1)NC(=O)[C@H](CCCNC(=N)NC)NC(=O)[C@H]1CCCN1C(=O)[C@H](CO)NC(C)=O)C(=O)NC(C)(C)C(=O)N[C@H](C(=O)N[C@@H](CCCNC(=N)N)C(=O)N[C@@H](CCC(N)=O)C(=O)N[C@@H](CCCNC(=N)N)C(=O)N[C@@H](CC1CCCCC1)C(N)=O)[C@@H](C)O
B16: 4-Imidazolecarbonyl-[D-Pro24, Nle25, Pya(4)26, Cha27,36, Aib28,31, Lys30]-PYY(23-36) (peptide)
peptide: Imidazole4carbonyl-S[dP][Nle][4Pal][Cha][Aib]NK[Aib]TRQR[Cha]-NH2
SMILES: CCCC[C@H](NC(=O)[C@H]1CCCN1C(=O)[C@H](CO)NC(=O)c1cnc[nH]1)C(=O)N[C@@H](Cc1ccncc1)C(=O)N[C@@H](CC1CCCCC1)C(=O)NC(C)(C)C(=O)N[C@@H](CC(N)=O)C(=O)N[C@@H](CCCCN)C(=O)NC(C)(C)C(=O)N[C@H](C(=O)N[C@@H](CCCNC(=N)N)C(=O)N[C@@H](CCC(N)=O)C(=O)N[C@@H](CCCNC(=N)N)C(=O)N[C@@H](CC1CCCCC1)C(N)=O)[C@@H](C)O

Molecular target: human Y2 receptor (human) (UniProt P49146)
Experiment: cell-based or functional assay

Sequence of human Y2 receptor (human) (P49146 whole entry): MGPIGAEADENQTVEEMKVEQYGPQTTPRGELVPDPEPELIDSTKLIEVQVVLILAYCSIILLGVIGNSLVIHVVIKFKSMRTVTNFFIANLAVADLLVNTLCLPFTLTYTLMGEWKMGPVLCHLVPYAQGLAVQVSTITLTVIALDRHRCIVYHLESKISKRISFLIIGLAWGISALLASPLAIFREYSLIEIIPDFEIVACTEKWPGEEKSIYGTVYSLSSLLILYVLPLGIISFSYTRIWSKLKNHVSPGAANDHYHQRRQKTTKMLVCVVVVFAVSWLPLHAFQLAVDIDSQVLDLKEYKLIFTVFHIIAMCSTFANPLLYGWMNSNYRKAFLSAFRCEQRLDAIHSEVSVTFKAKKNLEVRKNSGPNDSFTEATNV

GBA EC50 Ratio ([35S]GTPγS binding) (EC50 compound/EC50 PYY(3-36)) | Binder
1.6 | B1
1.9 | B2
1 | B3
0.78 | B4
14 | B5
1.1 | B6
2.8 | B7
1.7 | B8
1.1 | B9
1.2 | B10
1.9 | B11
1 | B12
5.8 | B13
0.91 | B14
1.5 | B15
1.2 | B16

Molecular target: human Y2 receptor (human) (UniProt P49146)
Experiment: RBA: displacement of [125I]-PYY from hY2R/CHO membranes

IC50 Ratio (IC50 compound/IC50 PYY(3-36)) | Binder
3 | B1
1.6 | B2
0.65 | B3
0.88 | B4
18 | B5
0.32 | B6
6.1 | B7
2.4 | B8
1 | B9
1.2 | B10
2.3 | B11
1.1 | B12
4.3 | B13
0.77 | B14
1.5 | B15
1.7 | B16
